Test results as given in paper PMC3734082.

Target: clathrin triskelia (clathrin heavy chain, CHC) purified from rat liver (UniProt P11442)
Assay: GST pull-down, CHC
Conditions: sites S558

Substance | binding against the reference (reference: wild type treated with Aurora A) | binding against the reference (reference: wild-type CID treated with Aurora A)
TACC3 (from UniProt Q9Y6A5) S558A treated with Aurora A | weaker | –
TACC3 clathrin interaction domain (CID), 522-577 (from UniProt Q9Y6A5) S558A CID treated with Aurora A | – | weaker
